Test results taken from PMC10311653 (ACS Central Science, 2023).
Residue numbers refer to the chain shown, from its start. Read-outs that look alike come from different tables or passages of the source.

B1: Q15CK-A8 (antibody, V domains shown)
VH: EVKLQESGAELVKPGASVKLSCTASGFNIEDTYIHWVKQRPEQGLEWIGRIDPANGNTKYDPKFQGKATITEDTSSNTAYLQLSSLTSEDTAVYYCAIHYYGSFAYWGQGTLVTVSA
VL: DIQITQSRKFMSTSVGDRVSVTCKASQNVGTNVAWYQQKPGQSPKALIYSASYRYSGVPDRFTGSGSGTDFTLTISNVQSEDLAEYFCQQYNSYPYTFGGGTKLELK
B2: Q15Kcr-C7 phage (scFv, V domains shown)
VH: EVQQQQSGTELMKPGASVKISCKATGYTFSSYWIEWVKQRPGHGLEWIGEILPGSGSTNYNEKFKGKATFTADTTSNTAYMQLSSLTSEDSAVYYCASGGYRPSMDYWGQGISVTVSS
VL: B1 VL with D1G, Q3E, I4L, R8Q, M11T, S50Q, Y96L, G100A
notes: mouse scFv from the Q15Kcr immunization library; source: E. coli XL1-Blue with M13KO7 (ΔpIII) hyperphage, monoclonal phage, PEG 8000/NaCl precipitated
B3: Q15Kcr-G8-mFc (Fc fusion, mouse)
VH: B1 VH with K3Q, E6Q, G26D, E30K, N55D, E72A, A105P
VL: DIVMTQAHKFMSTSVGDRVSITCQASQDVGTAVAWYQQKPGQSPKLLIYWASTRHTGVPDRFTGSGSGTDFTLTISNVQSEDLADYFCQQYSSYPYTFGGGTKLEIK
notes: as the scFv of m42; source: HEK 293F, transfected, purified (Protein A, Superdex 200 SEC)
B4: Q15Kcr-C1 phage (scFv, V domains shown)
VH: B1 VH with K3Q, E6Q, E30K, N55D, E72A, A105P
VL: DIQMTQTTSSLSASLGDRVSISCRTSQDISNYLNWYQQKPDGTLKLLIYFTSRLHSGVPSRFSGSGSGTDYSLTISNLEQEDIATYFCQQGKTLPYTFGGGTKLELK
notes: as for B2
B5: Q15CK-B10 (antibody, V domains shown)
VH: B1 VH with K3Q, E6Q, A9T, E30K, I34M, G56D, E72T, A105P
VL: B3 VL with A7S, H8Q, Q24K, D28N, W50S, T53N, H55Y, V78M, I106L
B6: Q15CK-H5 (antibody, V domains shown)
VH: B1 VH with K3Q, E6Q, K19R, E30K, I34M, K38R, F64S, I70L, E72A, Q82H
VL: B1 VL with Q3V, I4M, R8Q, Y96L, G100A
B7: Q15Kcr-D1 phage (scFv, V domains shown)
VH: B1 VH with K3Q, G56D
VL: B1 VL with Q3L, I4M, K45E, E85D, S93T, L106M
notes: as for B2
B8: Q15Kcr-H2 phage (scFv, V domains shown)
VH: B1 VH with K3Q, E6Q, E30K, G56V, E72A, Y106H
VL: B1 VL with Q3L, I4M, R8Q, S50Q
notes: as for B2
B9: Q15Kcr-A3 phage (scFv, V domains shown)
VH: B1 VH with K3Q, E6Q, E30K, T71R, E72A
VL: B3 VL with V3L, A7S, Q24K
notes: as for B2
B10: Q15Kcr-B6 phage (scFv, V domains shown)
VH: B1 VH with K3Q, E30K, G56V, E72A, Y106H, S116P
VL: B3 VL with A7S, Q24K, Y96L, G100S
notes: as for B2
B11: Q15Kcr-H11 phage (scFv, V domains shown)
VH: EVQLQQSGAELVKTGASVKLSCTASGFSIKDTYIHWVKQRPEQGLEWIGRIDPDPATINTKYDPHFQDKATITADTSSNTTYLQLSSLTSEDTAVYYCAIHYYGSFPYWGQGTLVTVSA
VL: B4 VL with S20T, T25A, L44V, K92N
notes: as for B2
B12: E64Kcr-A4-mFc (Fc fusion, mouse)
VH: EVKLEESGGGLVQPGGSMKLSCVASGFTFSNYWMNWVRQSPEKGLEWVAEIRLKSNNYATPYAESVKGRFTISRDDSKSSVYLQMNNLRAEDTGIYYCTRGGIFLAYWGQGTLVTVSA
VL: B4 VL with M4L, T7P, S20T, T25A, L44V, F50Y, K92N
notes: as the scFv of m29; source: HEK 293F, transfected, purified (Protein A, Superdex 200 SEC)
B13: E64Kcr-B9-mFc (Fc fusion, mouse)
VH: EVQLQQSGAELVKPGASVKLSCTASGFNIKDTYMHWVKQRPEQGLEWIGRIDPANGNTKYDPKFQGKATITADTSSNTAYLQLSSLTSEDTAVYYCAIHYYGSLPVWGAGTTVTVSS
VL: B3 VL with D1G, A7S, Q24K, Y96L, G100A, K103M, I106L
notes: as the scFv of m30; source: HEK 293F, transfected, purified (Protein A, Superdex 200 SEC)
B14: Q15CK-B1 (antibody, V domains shown)
VH: EVQLQQSGPQLVRPGASVKISCKASGYSFTSYWMHWVKQRPGQGLEWIGMIDPSDSETRLNQKFKDKATLTVDKSSSTAYMQLSSPTSEDSAVYYCARWDSWGQGTLVTVSA
VL: DIVMTQSPSSLTVTAGEKVTMSCKSSQSLSKSGNQKNYLTWYQQKPGQPPKLLIYWASTRESGVPDRFTGSGSGTDFTLTISSVQAEDLAVYYCQNDYSYPFTFGSGTKLEIK
B15: Q15CK-D6 (antibody, V domains shown)
VH: B14 VH with S31N, N61D
VL: B14 VL with V3L, M4L, S30L, K31N
B16: Q15CK-D4 (antibody, V domains shown)
VH: EVQLVESGGGLVQPGGSRKLSCAASGFTFSTFGMHWVRQAPEKGLEWVAYISSGSYTIYYADTVKGRFTISRDNPKNTLFLQMTSLRSEDTAMYYCARDDYDVNYYAMDYWGQGTSVTVSS
VL: DIVLSQSPAIMSASPGEKVTMTCSASSSVSYMHWYQQKSSTSPKLWIYDTSKLASGVPGRFSGSGSGNSYSLTISSMEAEDVATYYCFQGSGYPYTFGGGTKLEIK
B17: E64Kcr-G9-mFc (Fc fusion, mouse)
VH: B16 VH with T31S, Y56S, N104R, Y105A
VL: DIQMIQSPASLSASVGETVTITCRASQNIYSYLAWYQQKQGKSPQLLVYNAKTLAEGVPSRFSGSGSGTQFSLKINSLQPEDFGSYYCQHHYGTPLTFGAGTKLELK
notes: as the scFv of m27; source: HEK 293F, transfected, purified (Protein A, Superdex 200 SEC)
B18: E64Kcr-A5-mFc (Fc fusion, mouse)
VH: B16 VH with T31S, A97T, N104R, Y105A
VL: DIVMTQPSSSFSVSLGDRVTITCKASEDIYNRLAWYQQKPGNAPRLLISGATTLETGVPSRFSGSGSGKDYTLTITSLQTEDVATYYCQQYWSTPLTFGAGTKLELK
notes: as the scFv of m25; source: HEK 293F, transfected, purified (Protein A, Superdex 200 SEC)
B19: CL-E2 phage (scFv, V domains shown)
VH: B2 VH with Q4L, Q5K, Q6E, T9A, T74I, T75S, Y107F, I112T
VL: DIVMTQSQKFMSTSVGDRVSITCKASQNVRTAVAWYQQKPGQSPKALIYLASNRHTGVPDRFTGSGSGTDFTLTITNVQSEDLADYFCLQHWNYPLTFGAGTKLELK
notes: mouse scFv from the E64AcrK immunization library; also called phage CL-E2; source: E. coli XL1-Blue with M13KO7 (ΔpIII) hyperphage, monoclonal phage, PEG 8000/NaCl precipitated
B20: CL-E2-mFc (Fc fusion, mouse)
VH: B2 VH with Q4L, Q5K, Q6E, T9A, T74I, T75S, Y107F, I112T
VL: B19 VL
notes: as the scFv of m23; also called CL-E2-mFc fusion antibody; source: HEK 293F, transfected, purified (Protein A, Superdex 200 SEC)

Tests used:
[1] = target: T1, wildtype (WT) human interleukin-1β (Homo sapiens, UniProt P01584)
hIL-1βQ15Kcr = hIL-1βQ15Kcr (Homo sapiens, UniProt P01584, point mutant, Nε-crotonyl-L-lysine (Kcr) at 15)
[2] = target: T1, wildtype (WT) human interleukin-1β; test: ELISA; phage ELISA; antigen (100 ng) coated on the plate; phages added (pfu titration) in 3% skim milk in DPBST, 2 h at 37 °C; settings: one partner purified
hIL-1βQ15G = target: T2, hIL-1βQ15G (Homo sapiens, UniProt P01584, point mutant); test: not stated; binding affinity of Q15Kcr-G8-mFc for hIL-1β, hIL-1βQ15Kcr and hIL-1βQ15G (Figure S13E); settings: both partners purified
T2 construct: human interleukin-1β (hIL-1β); source: E. coli BL21 (DE3), purified (Ni-NTA, Superdex 75 SEC)

hIL-1β V151A = target: T3, hIL-1β V151A (Homo sapiens, UniProt P01584, point mutant); test: ELISA; antigen (100 ng) coated on the plate; scFv-mFc added in 3% skim milk in DPBST, 2 h at 37 °C; EC50; settings: both partners purified
T3 construct: human interleukin-1β (hIL-1β); source: E. coli BL21 (DE3), purified (Ni-NTA, Superdex 75 SEC)

[3] = target: T1, wildtype (WT) human interleukin-1β; test: as above; settings: both partners purified
[4] = target: T1, wildtype (WT) human interleukin-1β; test: as above; settings: both partners purified; remark: listed apart in the source

Row | Binder | binding result [1] | binding result (hIL-1βQ15Kcr) | binding result [2] | also measured
1 | B1 | binds | binds | – | –
2 | B2 | – | – | binds | –
3 | B3 | – | – | – | fold decrease of affinity (hIL-1βQ15G): ~10 fold
4 | B4 | – | – | binds | –
5 | B5 | binds | binds | – | –
6 | B6 | binds | binds | – | –
7 | B7 | – | – | binds | –
8 | B8 | – | – | binds | –
9 | B9 | – | – | binds | –
10 | B10 | – | – | binds | –
11 | B11 | – | – | binds | –
12 | B12 | – | – | – | binding result (hIL-1β V151A): binds; EC50 [3]: 0.121 nM
13 | B13 | – | – | – | binding result (hIL-1β V151A): binds; EC50 [3]: 0.04 nM
14 | B14 | binds | binds | – | –
15 | B15 | binds | binds | – | –
16 | B16 | binds | binds | – | –
17 | B17 | – | – | – | binding result (hIL-1β V151A): binds; EC50 [3]: 0.197 nM
18 | B18 | – | – | – | binding result (hIL-1β V151A): binds; EC50 [3]: 0.034 nM
19 | B19 | – | – | binds | –
20 | B20 | – | – | – | binding result [4]: binds
